Test [1] deals with GHRH receptor (membrane GHRH-receptors on human anterior pituitary cells) (human) (UniProt Q02643). The test is described as follows: competitive radioligand binding; displacement of 125I-[His1,Nle27]-hGH-RH(1-32)NH2 (0.2 nM) from human pituitary membrane fractions.
The target in test [2] is T1, GHRH receptor on rat pituitary cells (rat, UniProt Q02644 23-464).
T1 sequence (looked up): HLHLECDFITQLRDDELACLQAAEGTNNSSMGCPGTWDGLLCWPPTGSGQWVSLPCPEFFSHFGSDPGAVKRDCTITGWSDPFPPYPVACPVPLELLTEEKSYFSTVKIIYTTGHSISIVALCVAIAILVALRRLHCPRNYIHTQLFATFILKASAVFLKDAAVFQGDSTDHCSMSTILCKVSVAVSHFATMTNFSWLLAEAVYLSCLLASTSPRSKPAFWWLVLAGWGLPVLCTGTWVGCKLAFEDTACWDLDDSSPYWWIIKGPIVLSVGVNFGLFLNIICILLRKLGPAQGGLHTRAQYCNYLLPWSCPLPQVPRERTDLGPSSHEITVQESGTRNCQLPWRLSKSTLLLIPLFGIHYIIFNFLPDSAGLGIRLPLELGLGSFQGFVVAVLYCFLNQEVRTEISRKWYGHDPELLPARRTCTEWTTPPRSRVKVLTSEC
Description: cell-based or functional assay.

In test [3] the target is T2, GHRH receptor (membrane GHRH-receptors on human anterior pituitary cells) (human, UniProt Q02643 23-423).
T2 construct: whole, on cells; Native receptor in membrane fractions prepared from bought human pituitary (National Hormone and Peptide Program), not a recombinant construct; also called pituitary type GHRH-receptor; pGHRH-R
T2 sequence (looked up): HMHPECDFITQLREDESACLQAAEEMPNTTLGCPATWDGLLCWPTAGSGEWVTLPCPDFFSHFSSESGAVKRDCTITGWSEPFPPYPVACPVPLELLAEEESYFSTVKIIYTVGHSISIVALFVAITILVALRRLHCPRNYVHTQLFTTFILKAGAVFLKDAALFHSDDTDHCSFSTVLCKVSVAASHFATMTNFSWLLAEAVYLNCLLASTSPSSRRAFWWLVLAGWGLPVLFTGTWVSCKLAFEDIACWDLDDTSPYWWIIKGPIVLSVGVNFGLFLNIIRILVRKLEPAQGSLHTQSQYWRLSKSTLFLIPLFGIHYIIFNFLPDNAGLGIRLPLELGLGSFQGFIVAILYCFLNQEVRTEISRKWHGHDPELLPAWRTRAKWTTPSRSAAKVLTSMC
Description: competitive radioligand binding; displacement of 125I-[His1,Nle27]-hGH-RH(1-32)NH2 (0.2 nM) from human pituitary membrane fractions. As for the experimental part: Receptor binding affinities in vitro. Preparation of human pituitary membrane fractions and receptor binding of analogs of GH-RH were performed (Halmos G, Rekasi Z, Szoke B, Schally A V. (1993) Receptor 3:87-97). Human pituitary was purchased from the National Hormone and Peptide Program. […] The values were calculated from technical duplicate tubes.
Nineteen new AVR analogs of GHRH were tested in the receptor binding assay. Table 6 presents the IC₅₀ values of GHRH antagonists to membrane GHRH-receptors binding on human anterior pituitary cells.

The text below walks through data of patent US20220000983A1 (UNITED STATES GOVERNMENT AS REPRESENTED BY THE DEPARTMENT …, published 2022).

Starred links: 1 amine or outer side, 2 acyl side, 3 side chain; linkers in the order of their positions; H or OH if unused. Non-standard residues stand in square brackets, D forms with d. No end group written: not given here. *: point of attachment. Tyr(Me) = O-methyltyrosine, COc1ccc(C[C@H](N[*:1])C(=O)[*:2])cc1; Phenylacetyl(2,3,4,5,6-F5) = O=C(Cc1c(F)c(F)c(F)c(F)c1F)*; Phe(F5) = N[C@@H](Cc1c(F)c(F)c(F)c(F)c1F)C(=O)O; Phe(4-Cl) = N[C@@H](Cc1ccc(Cl)cc1)C(=O)O; hArg = N=C(N)NCCCC[C@H](N)C(=O)O; Nle = CCCC[C@H](N)C(=O)O; Orn = NCCC[C@H](N)C(=O)O; Abu = CC[C@H](N)C(=O)O; Ada = not defined here; Amp = not defined here; Cpa = not defined here; PhAc = O=C(Cc1ccccc1)*; Aoc = NCCCCCCCC(=O)O

In test [1], AVR-332 (peptide) yielded an IC50 of 0.34 nM.

The molecule MIA-602 (peptide) came in with a Relative GH release (relative to control (1.00)) in test [2] of 0.78. In addition, in test [1], the IC50 was 0.27 nM.

In test [2], AVR-540 (peptide) showed a Relative GH release (relative to control (1.00)) of 0.88.

B1: AVR-201 (peptide)
peptide: {PhAc-Ada}-Y[dR]DAI[Cpa]TAR[Amp]RKVL[Abu]QLSAH[Orn]LLQDI[Nle][dR][hArg]-NHMe
modifications: reading uncertain
notes: Synthetic GHRH antagonist
As to B1, the IC50 in test [3] is 0.61 nM.

B2: AVR-120 (peptide)
peptide: {dF-Ada}-Y[dR]DAI[Phe(4-Cl)]TAR[Tyr(Me)]RKVL[Abu]QLSAH[Orn]LLQDI[Nle][dR][hArg]-NH2
modifications: reading uncertain
notes: Synthetic GHRH antagonist
As to B2, the IC50 in test [3] stood at 0.48 nM.

B3: AVR-620 (peptide)
peptide: {Phenylacetyl(2,3,4,5,6-F5)-Ada}-Y[dR]DAI[Cpa]TNR[Tyr(Me)]RKVL[Abu]QLSAH[Orn]LLQDI[Nle][dR][hArg]-{Ada-NH2}
modifications: reading uncertain
notes: Synthetic GHRH antagonist
In test [3], B3 displayed an IC50 of 0.31 nM.

B4: AVR-235 (peptide)
peptide: {Phenylacetyl(2,3,4,5,6-F5)-Ada}-Y[dR]DAI[Phe(F5)]TA[hArg][Tyr(Me)]RKVL[Abu]QLSARKLLQDI[Nle][dR]-NHMe
modifications: reading uncertain
With B4, in test [3], the concentration for half-maximal inhibition (IC50) is 0.49 nM. The “Relative GH release” value in test [2] is 0.6 relative to control (1.00).

B5: AVR-543 (peptide)
peptide: {Phenylacetyl(2,3,4,5,6-F5)-Ada}-Y[dR]DAI[Cpa]TA[hArg][Phe(F5)]H[Orn]VL[Abu]QLSAH[Orn]LLQDI[Nle][dR][hArg]-{Ada-NHMe}
modifications: reading uncertain
notes: Synthetic GHRH antagonist
In test [3], B5 yielded an IC50 of 0.25 nM. Also, in test [2], the “Relative GH release” value is 1.1 relative to control (1.00).

B6: AVR-104 (peptide)
peptide: {PhAc-Ada}-Y[dR]DAI[Phe(4-Cl)]TAR[Tyr(Me)]RKVL[Abu]QLSAH[Orn]LLQDI[Nle][dR][hArg]-NH2
modifications: reading uncertain
notes: Synthetic GHRH antagonist
B6 registered an IC50 in test [3] of 0.59 nM.

B7: AVR-116 (peptide)
peptide: {PhAc-Ada}-Y[dR]DAI[Phe(4-Cl)]TAR[Phe(F5)]RKVL[Abu]QLSAH[Orn]LLQDI[Nle][dR][hArg]-NH2
modifications: reading uncertain
notes: Synthetic GHRH antagonist
Molecule B7 had an IC50 in test [3] of 0.5 nM.

B8: AVR-333 (peptide)
peptide: {Phenylacetyl(2,3,4,5,6-F5)-Ada}-Y[dR]DAI[Phe(4-Cl)]TN[hArg][Tyr(Me)]RKVL[Abu]QLSARKLLQDI[Nle][dR][hArg]-{Ada-NH2}
modifications: reading uncertain
notes: Synthetic GHRH antagonist
As for B8, in test [3], the IC50 turned out to be 0.3 nM. Further, the “Relative GH release” value in test [2] is 0.88 relative to control (1.00).

B9: AVR-354 (peptide)
peptide: {Phenylacetyl(2,3,4,5,6-F5)-Ada}-Y[dR]DAI[Phe(4-Cl)]TA[hArg][Phe(F5)]RKVL[Abu]QLSARKLLQDI[Nle][dR][hArg]
modifications: not fully specified (C-terminus); reading uncertain
Regarding B9, the IC50 in test [3] came to 0.14 nM. Besides, the “Relative GH release” value in test [2] is 0.9 relative to control (1.00).

B10: AVR-353 (peptide)
peptide: {Phenylacetyl(2,3,4,5,6-F5)-Ada}-Y[dR]DAI[Phe(4-Cl)]TA[hArg][Phe(F5)]RKVL[Abu]QLSARKLLQDI[Nle][dR][hArg]-{Ada-NH2}
modifications: reading uncertain
notes: Synthetic GHRH antagonist
On to B10, for which, in test [3], the IC50 came to 0.11 nM. Besides, the “Relative GH release” value in test [2] is 0.65 relative to control (1.00).

B11: AVR-234 (peptide)
peptide: {PhAc-Ada}-Y[dR]DAI[Phe(4-Cl)]TNR[Tyr(Me)]RKVL[Abu]QLSARKLLQDI[Nle][dR][hArg]-NHMe
modifications: reading uncertain
notes: Synthetic GHRH antagonist
B11 displayed a 50% inhibitory concentration (IC50) in test [3] of 0.45 nM.

B12: AVR-553 (peptide)
peptide: {Phenylacetyl(2,3,4,5,6-F5)-Ada}-Y[dR]DAI[Phe(F5)]TA[hArg][Tyr(Me)]H[Orn]VL[Abu]QLSAH[Orn]LLQDI[Nle][dR][hArg]-{Ada-NH2}
modifications: reading uncertain
notes: Synthetic GHRH antagonist
In test [3], B12 yielded an IC50 of 0.15 nM. Besides, the “Relative GH release” value in test [2] was 0.82 relative to control (1.00).

B13: MIA-690 (peptide)
chain: {PhAc-Ada}-Y[dR]DAI[Cpa]TA[hArg][Phe(F5)]H[Orn]VL[Abu]QLSAH[Orn]LLQDI[Nle][dR][hArg]-NH2
modifications: reading uncertain
As for B13, the IC50 in test [3] worked out at 0.53 nM.

B14: AVR-321 (peptide)
peptide: {PhAc-Ada}-Y[dR]DAI[Phe(4-Cl)]TN[hArg][Tyr(Me)]RKVL[Abu]QLSARKLLQDI[Nle][dR][hArg]-{Aoc-NHMe}
modifications: reading uncertain
notes: Synthetic GHRH antagonist
Take B14: the IC50 in test [3] was 0.23 nM.

B15: AVR-352 (peptide)
peptide: {Phenylacetyl(2,3,4,5,6-F5)-Ada}-Y[dR]DAI[Phe(F5)]TA[hArg][Tyr(Me)]RKVL[Abu]QLSARKLLQDI[Nle][dR][hArg]-{Ada-NH2}
modifications: not fully specified; reading uncertain
Take B15: the IC50 in test [3] came out at 0.09 nM. Also, the “Relative GH release” value in test [2] is 0.72 relative to control (1.00).

B16: AVR-107 (peptide)
peptide: {PhAc-Ada}-Y[dR]DAI[Cpa]TARYRKVL[Abu]QLSARKLLQDI[Nle][dR][hArg]-NH2
modifications: reading uncertain
notes: Synthetic GHRH antagonist
As to B16, the IC50 in test [3] worked out at 0.61 nM.

B17: AVR-322 (peptide)
peptide: {Phenylacetyl(2,3,4,5,6-F5)-Ada}-Y[dR]DAI[Phe(4-Cl)]TN[hArg][Tyr(Me)]RKVL[Abu]QLSARKLLQDI[Nle][dR][hArg]-{Aoc-NHMe}
modifications: reading uncertain
notes: Synthetic GHRH antagonist
With B17, the IC50 in test [3] amounted to 0.25 nM.

B18: AVR-542 (peptide)
peptide: {Phenylacetyl(2,3,4,5,6-F5)-Ada}-Y[dR]DAI[Cpa]TA[hArg][Phe(F5)]H[Orn]VL[Abu]QLSAH[Orn]LLQDI[Nle][dR][hArg]-NHMe
modifications: reading uncertain
As to B18, the IC50 in test [3] worked out at 0.21 nM.

B19: AVR-552 (peptide)
peptide: {Phenylacetyl(2,3,4,5,6-F5)-Ada}-Y[dR]DAI[Cpa]TA[hArg][Phe(F5)]H[Orn]VL[Abu]QLSAH[Orn]LLQDI[Nle][dR][hArg]-{Ada-NH2}
modifications: reading uncertain
notes: Synthetic GHRH antagonist
For the molecule B19, in test [3], the concentration for half-maximal inhibition (IC50) was found to be 0.17 nM.
